Measurements taken from patent US20240398863A1 (ARCE THERAPEUTICS, published 2024).
Numbering of substitutions follows the chain as printed. Each block holds one molecule with its values, some of them ahead of it.

Experiments:
[1] = target: Human C-type lectin-like molecule-1 (CLL-1) on cells (human) (UniProt Q5QGZ9); test: flow cytometry histogram on HL60 AML cells
[2] = target: Human C-type lectin-like molecule-1 (CLL-1) on cells (human) (UniProt Q5QGZ9); test: flow cytometry histogram on U937 AML cells
[3] = target: Human C-type lectin-like molecule-1 (CLL-1) on cells (human) (UniProt Q5QGZ9); test: flow cytometry histogram on THP-1 AML cells
[4] = target: Human C-type lectin-like molecule-1 (CLL-1) on cells (human) (UniProt Q5QGZ9); test: flow cytometry histogram on Molm13 AML cells
[5] = target: Human C-type lectin-like molecule-1 (CLL-1) on cells (human) (UniProt Q5QGZ9); test: flow cytometry histogram on Molm14 AML cells; the bold label in the same panel prints 67.1%
[6] = target: Human C-type lectin-like molecule-1 (CLL-1) on cells (human) (UniProt Q5QGZ9); test: flow cytometry dot plot on Molm14 WT cells, CLL-1_APC_A against CD123_BV421_A (D-Q1: 0.14%, D-Q3: 0.28%, D-Q4: 18.03%); in the Molm14 CLL-1KO pool the same quadrant holds D-Q2: 10.47% and D-Q4: 89.48%
CLL-1-ECD [7] = target: T1, CLL-1-ECD (human, UniProt Q5QGZ9 65-265); test: AlphaLISA; column head 'Affinity: Kd (M) by AlphaLISA'; clone printed as 56D01, FIG. 3A on the same sheet prints 65D01
T1 construct: extracellular domain; also called CLL-1-ECD antigen
T1 sequence (looked up): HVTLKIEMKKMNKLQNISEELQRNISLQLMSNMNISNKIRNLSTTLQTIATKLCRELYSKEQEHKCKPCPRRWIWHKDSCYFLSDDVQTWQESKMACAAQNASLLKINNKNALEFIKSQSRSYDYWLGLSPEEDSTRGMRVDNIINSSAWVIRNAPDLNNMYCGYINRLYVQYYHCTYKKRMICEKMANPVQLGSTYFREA
Procedure: (§1) In order to characterize the antigen binding capacities of anti-CLL-1 scFv-Fc antibodies, an AlphaLISA sandwich assay was set up with Anti-6×His Acceptor beads, Protein A Donor beads, and CLL-1-ECD. By AlphaLISA assay, the Kd values of each anti-CLL-1 scFv-Fc antibody were determined.

CLL-1-ECD [8] = target: T1, CLL-1-ECD; test: AlphaLISA; column head 'Affinity: Kd (M) by AlphaLISA'
Procedure: as §1

CLL-1-ECD [9] = target: T1, CLL-1-ECD; test: AlphaLISA sandwich assay with Anti-6xHis Acceptor beads, Protein A Donor beads and CLL-1-ECD
Procedure: as §1

[10] = target: T2, Human C-type lectin-like molecule-1 (CLL-1) on cells (human, UniProt Q5QGZ9 1-265); test: flow cytometry, overlaid histograms on K562-CLL-1 OFP cells; panel title 'Anti-CLL-1 scFv-Fc Abs_2 nM' (legend paragraph 56 says 0.2 nM); control: 2nd antibody only [B]
T2 construct: whole, on cells; also called CLL-1 antigens; MICL
T2 sequence (looked up): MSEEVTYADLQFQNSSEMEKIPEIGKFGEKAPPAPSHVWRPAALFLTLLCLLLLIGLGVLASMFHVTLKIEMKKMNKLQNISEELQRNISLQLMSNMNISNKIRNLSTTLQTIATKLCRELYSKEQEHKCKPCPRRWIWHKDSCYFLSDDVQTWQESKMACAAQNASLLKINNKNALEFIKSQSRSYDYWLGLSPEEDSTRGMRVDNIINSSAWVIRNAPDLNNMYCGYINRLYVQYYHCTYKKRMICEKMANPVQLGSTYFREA
Procedure: FIG. 1 illustrates screening of the anti-CLL-1 antibodies disclosed herein by flow cytometry: (A) Representative flow cytometry dot plots. (B) Overlapping histograms. Each scFv-Fc antibody was stained at 0.2 nM with paired K562-CLL-1 and K562 cells, followed by staining with fluorochrome-conjugated 2nd antibody for flow cytometry analysis;
As illustrated in FIGS. 1A-B and 2, purified scFv-Fc antibodies were further assessed by flow cytometry for their binding to CLL-1 antigens of the K562-Luc-CLL-1 transfectant as well as the CLL-1+ AML cell line, U937, MOLM-14 and THP-1. K562 cells, a human erythroleukemic cell line, and Raji-Luc cells, a human B lymphoblastoid cell line, were used as the CLL-1-negative control cell lines. Each scFv-Fc antibody was screened with six cell lines, including K562, K562-CLL-1, U937, MOLM-14, THP-1 and Raji. Although the binding profiles of each clone varied with cell lines tested, the Top 3 clones with stronger binding pattern were selected, and the ranges of binding percentage were 52%˜99% for K562-Luc-CLL-1, 25%˜98% for U937, 6%˜37% for MLOM-14 and 1%-36% for THP-1.

% positive cells (gate D) [1]: 74.4%
% positive cells (gate D) [2]: 99.3%
% positive cells (gate D) [3]: 71%
% positive cells (gate D) [4]: 21.6%
% positive cells (gate D) [5]: 67.6%
% cells in quadrant D-Q2 (CLL-1 APC+ CD123 BV421+) [6]: 81.5%
Molecule: anti-human CLL-1-APC antibody (clone REA431)

Kd (CLL-1-ECD [7]): 2.8 nM
B1: anti-CLL-1 scFv-Fc antibody 65D01 (Fc fusion)
VH: QVQLQQWGAGLLKPSETLSLTCAVYGGSFSGYYWSWIRQPPGKGLEWIGEINHSGSTNYNPSLKSRVTISVDTSKNQFSLKLSSVTAADTAAYYCARSPLQWLDDAFDIWGQGTMVTVSS
VL: QSVLTQPPSVSAAPGQRVTISCSGSSSNIGSNYVSWYQQLPGTAPKLLIYDNNERPSGIPDRFSGSKSATSATLDITGLQTGDEADYFCGTWDNSPSTDWVFGGGTKVTVLG
notes: also called anti-CLL-1-65D01

Kd (CLL-1-ECD [8]): 1.1 nM
EC50 (read off the curve) (CLL-1-ECD [9]): ~1 nM
B2: anti-CLL-1 scFv-Fc antibody 72C10 (Fc fusion)
VH: EVQLVESGGGLVQPGGSLRLSCAASGFTFSVNAMHWVRQAPGKGLEWVSTISGSDGHKYYADSVKSRFTISRDNSKNTLYLQMNSLRAEDTAVYYCARDVDSEIGDGYHEDIWGQGTLVTVSS
VL: DIQMTQSPSSLSASVGDRVTITCRASQSVTNALNWYQQKPGKAPKLLIYAASNLQSGVPSRFSGSGSGTDFTLTISSLQPEDFATYYCQQTNNSPATFGQGTKVEIKR
notes: also called anti-CLL-1-72C10

Kd (CLL-1-ECD [8]): 4.9 nM
B3: anti-CLL-1 scFv-Fc antibody 61H08 (Fc fusion)
VH: EVQLVESGGGLVQPGGSLRLSCAASGFTFDDYGMHWVRQAPGKGLEWVSGIWPSGGNKEYADSVKGRFTISRDNSKNTLYLQMNSLRAEDTAVYYCARLLALTYDYFDYWGQGTLVTVSS
VL: DIQMTQSPSSLSASVGDRVTITCRASQGISSYLAWYQQKPGKAPKLLIYDASTLQSGVPSRFSGSGSGTDFTLTISSLQPEDFATYYCQQSYSTPFTFGQGTKVEIKR
notes: also called anti-CLL-1-61H08

binding result [10]: binds
B4: 59A09 (Fc fusion)
VH: EVQLVESGGGLVQPGGSLRLSCAASGFTFTDYYIHWVRQAPGKGLEWVSMISPSGGGEAYYADSVKGRFTISRDNSKNTLYLQMNSLRAEDTAVYYCARAHDFDDFDYWGQGTLVTVSS
VL: DIQMTQSPSSLSASVGDRVTITCRASQSIRYSLAWYQQKPGKASKLLIYDASTLQSGVPSRFSGSGSGTDFTLTISSLQPEDFATYYCQQYNNSPLTFGQGTKVEIK
notes: anti-CLL-1 scFv-Fc clone; also called anti-CLL-1-59A09; K562-CLL-1 OFP 59A09

binding result [10]: binds
B5: 61A07 (Fc fusion)
VH: EVQLVESGGGLVQPGGSLRLSCAASGFTFSNHWMHWVRQAPGKGLEWVSSISGAGGGKSYADSVKGRFTISRDNSKNTLYLQMNSLRAEDTAVYYCARDESSYAYDGDYWGQGTLVTVSS
VL: B4 VL with S26N, Y31N, S32Y, A34N, S44P, D50A, Y91N, N92T, N93S, L96S
notes: anti-CLL-1 scFv-Fc clone; also called anti-CLL-1-61A07; K562-CLL-1 OFP 61A07
